Data reported in patent US9096681B2, “XBP1, CD138, and CS1 peptides” (Dana-Farber Cancer Institute, Inc., priority 2008, dated 2015).

Experiments:
[1] = test system: CD3+ T lymphocytes from normal HLA-A2+ donors; test: Phenotypic analysis of peptide-stimulated T cells (flow cytometry); type: cell-based, human; conditions: after peptide stimulation; for percentage of CD8+ T cells: unstimulated cultures 33%; for percentage of CD4+ T cells: unstimulated cultures 64%
Method: Peptide-specific CTL (that is, XBP1, CD138, or CS1-peptide-specific CTL) were generated ex vivo by repeated stimulation of CD3^+ T lymphocytes obtained from normal HLA-A2^+ donors with XBP1, CD138, or CS1-peptide-pulsed antigen-presenting cells (APC), either T2 cells or mDC. In brief, T2 cells were washed and resuspended in serum-free AIM-V medium (Gibco BRL) and pulsed overnight at 37° C. with 50 μg/ml of the appropriate XBP1 or CD138 peptide. Peptide-pulsed APC were washed, counted, irradiated at 10 Gy and used to prime CD3^+ T cells at a 1:40 T2/peptide (stimulator)-to-CD3^+ T cell (responder) ratio in AIM-V medium supplemented with 10% human AB serum (BioWhittaker, Walkersville, Md.). The T cell cultures were restimulated every seven days with irradiated APC/peptide for a total of 4 cycles to generate XBP1 peptide-specific CTL (XBP1-CTL), CD138 peptide-specific CTL (CD138-CTL), or CS1 peptide-specific CTL (CS1-CTL). It is clear from the foregoing that “XBP1-CTL,” “CD138-CTL,” and “CS1-CTL” referred to herein are not clonal (or homogenous) populations. Rather, the XBP1-CTL, CD138-CTL, and CS1-CTL cells are heterogenous populations of lymphocytes comprising XBP1 peptide-, CD138 peptide-, or CS1 peptide-specific CTL along with non-specific CTL, APCs, and other lymphocytes obtained from the normal donors. 50 U/ml of interleukin-2 (IL-2) was added to the cultures two days after the second stimulation. Control T cell cultures (unstimulated with peptide) were maintained in AIM-V medium supplemented with 10% human AB serum containing 50 U/ml IL-2.
To determine the phenotype of the XBP1-CTL, CD4, or CD8 expression by the cells was detected using anti-CD4-PE or anti-CD8-FITC mouse anti-human mAbs. In addition, a variety of other expression markers were detected on the cells using combinations of either FITC-conjugated anti-CD69/PE-conjugated-anti-CD45RO or FITC-conjugated anti-CD45RA-FITC/PE-conjugated anti-CCR7 mouse anti-human mAbs. Alternatively, HLA-A2 expression by U266, McCAR, ML-2 and MM1S cells was determined using an FITC-conjugated anti-HLA-A2 anti-human mAb. After contacting the cells with antibodies for 15 minutes at 4° C., the cells were washed and analyzed using a FACSort™ flow cytometer with CellQuest v2.1 software (Becton Dickinson).
Cytotoxic T lymphocytes (CTL) are defined phenotypically by the expression of distinct cell surface antigens (e.g., CD8). Cell surface antigens can also be used to further define CTL as naïve or activated memory cells. For example, naïve humanCTL can be identified by the presence of CD45RA^+/CCR7^+, whereas activated human memory cells can be identified as CD69^+/CD45RO^+. Flow cytometry was performed on populations of human T cells stimulated with the heteroclitic peptides to determine the percentage of CTL that were naïve or activated memory cells. […] The unstimulated control T cells or CD138-CTL were further examined for naïve (CD45RA^+/CCR7^+) or activated memory (CD69^+/CD45RO^+) cell status.

[2] = target: T1, HLA-A2 molecules on the surface of human T2 cells (Homo sapiens, UniProt P04439, D140Y/D185E/D98H/E176V/E277Q/G131W/G231S/I119V/I121R/I166T/I218V/L300P/L318F/N151K/N90K/P208A/P217A/Q86G/Q94H/R138H/R169H/T345S); type: binding; conditions: non-spliced XBP1 peptides (FIG. 1), 50 μg/ml peptide (30 μg/ml influenza peptide), overnight
CD8+ T cells = test: Expansion of P2 peptide-specific CS1-CTL (HLA-A*0201 P2-tetramer / anti-CD8 flow analysis); type: cell-based, human; conditions: after the fourth re-stimulation with peptide-presenting dendritic cells
[3] = target: T1, HLA-A2 molecules on the surface of human T2 cells; test: Peptide stability assay (peptide/HLA-A2 binding stability post-Brefeldin A); conditions: for HLA-A2 binding stability (HLA-A2 up-regulation on T2 cells) versus native counterpart: spliced XBP1 heteroclitic peptides (FIG. 4)
McCAR cells = test: CTL proliferation by CFSE tracking, stimulation with McCAR cells; type: cell-based, human; conditions: cultured with McCAR cells, day 4
Method: XBP1-CTL or CD138-CTL were washed twice in PBS (Gibco-BRL) and resuspended in RPMI-1640 culture medium at a concentration of 1×10^6 cells/ml. CFSE (Molecular Probes, Eugene, Oreg.) in the form of a 5 mM stock solution in DMSO was added to the CTL to give a final concentration of 5 μM and incubated for 10 minutes at 37° C. in a CO2 incubator protected from light. After incubation, a volume of ice-cold PBS (containing 2% FCS) equivalent to five-times the volume of the CTL cells was added to the cells to quench the reaction. Cells were incubated for 5 minutes on ice, centrifuged and resuspended in fresh PBS (containing 2% FCS) after a total of three washings. CFSE-labeled T cells were adjusted to a concentration of 2×10^6 cells/ml with RPMI culture medium, stimulated with 2×10^5 cells/ml McCAR cells, ML-2 cells, MM1S cells, or no cells. The stimulated CFSE-labeled cells were examined on by FFC analysis day 4.
XBP1-CTL were exposed to carboxyfluoroscein succinimidyl ester (CFSE) as described above. Proliferation of the XBP1-CTL in response to stimulation with various tumor lines was determined by measuring the amount of CFSE in the cells. CFSE is a membrane permeable dye, which is taken up by cells. […] Thus, the number of cell divisions can be determined as the inverse of the concentration of dye in each cell of a population.

Q: Which results are given for “GLVGLIFAV (listed as Homo sapiens) [CD138 #2p, native CD138 peptide]”?
A: percentage of CD8+ T cells [1]: 82%; percentage of CD4+ T cells [1]: 15%

Q: For “ILAVLTLQI (listed as Homo sapiens) [XBP1189-197, native non-spliced XBP1 peptide]”, which “affinity for HLA-A2, HLA-A2-mean fluorescence intensity (MFI)” value (“affinity for HLA-A2” for short) [2] is on record?
A: significant affinity for HLA-A2 affinity, although less than that of XBP1184-192

Q: Which “affinity for HLA-A2” value [2] does the source give for “KLLLENQLL (listed as Homo sapiens) [XBP1110-118, native non-spliced XBP1 peptide]” here?
A: significant affinity for HLA-A2 affinity, although less than that of XBP1184-192

Q: Which “affinity for HLA-A2” value [2] does the source give for “LLREKTHGL (listed as Homo sapiens) [XBP1117-125, native non-spliced XBP1 peptide]” here?
A: significant affinity for HLA-A2 affinity, although less than that of XBP1184-192

Q: Which “affinity for HLA-A2” value [2] does the source give for “RMSELEQQV (listed as Homo sapiens) [XBP193-101, native non-spliced XBP1 peptide]” here?
A: significant affinity for HLA-A2 affinity, although less than that of XBP1184-192

Q: With “SLFVLGLFL (listed as Homo sapiens) [P2, native CS1 peptide]” as the sequence, how does the “percentage of cells bound by both HLA-A*0201 P2-tetramer and anti-CD8 antibody” value (CD8+ T cells) read?
A: Approximately 4.1%

Q: “VLTLQIQSL (ILAVLTLQI; listed as Homo sapiens) [XBP1192-200, native non-spliced XBP1 peptide]” was tested. Which “affinity for HLA-A2” value [2] did it give?
A: significant affinity for HLA-A2 affinity, although less than that of XBP1184-192

Q: Which “HLA-A2 binding stability (HLA-A2 up-regulation on T2 cells) versus native counterpart” value [3] does the source give for “YILDNLDPV (listed as Influenza virus) [heteroclitic peptide derived from native spliced XBP1 #1p]” here?
A: did not exhibit a significant increase in HLA-A2 stability over its native counterpart

Q: Which “percentage of CD69+/CD45RO+ (activated memory) cells” value ([1]; control T cells 4%) does the source give for “YLFPQLISV (listed as Homo sapiens) [SP XBP1 #3M, heteroclitic spliced XBP1 367-375 peptide]” here?
A: 64%

Q: And the “percentage of CD8+ T cells” value [1]?
A: 75%

Q: What about the “percentage of CD4+ T cells” value [1] of the same sequence?
A: 18%

Q: What about the “time for which higher level of HLA-A2 up-regulation was maintained” value ([3]; in Brefeldin A after removing unbound peptide (FIG. 4)) of the same sequence?
A: 6 h

Q: And the “HLA-A2 binding stability (HLA-A2 up-regulation on T2 cells) versus native counterpart” value [3]?
A: increase in HLA-A2 up-regulation on T2 cells

Q: What about the “CTL proliferation (M1 gated, CFSE)” value (McCAR cells) of the same sequence?
A: 42%
